Data taken from patent US20230405140A1 (MCSAF INSIDE ONCOLOGY, published 2023).

What was measured:
CD56 [1] = target: T1, CD56 (UniProt P13591 20-858, limits assumed); assay: cell-based or functional assay
CD56 [2] = target: T1, CD56; assay: cell-based or functional assay; remark: listed apart in the source
CD56 [3] = target: T1, CD56; assay: cell-based or functional assay; remark: listed apart in the source
HER2 = target: T2, HER2 (UniProt P04626 23-1255, limits assumed); assay: immunocytochemistry with peroxidase secondary antibody, SKBR3 cells (HER2-positive, no CD56); '-' = absence of fixation
T2 construct: whole, on cells; SK-BR-3 (SKBR3) cells, CD56-negative control line

B1: MF-m906-MMAE (antibody, human IgG1, kappa)
heavy: not shown
light: DVVMTQSPLSLPVTPGEPASISCRSSQSLLHSNGYNFLDWYLQKPGQSPQLLIYLGSNRASGVPDRFSGSGSGTDFTLKISRVEADDVGVYYCMQSLQTPWTFGHGTKVEIKRTVAAPSVFIFPPSDEQLKSGTASVVCLLNNFYPREAKVQWKVDNALQSGNSQESVTEQDSKDSTYSLSSTLTLSKADYEKHKVYACEVTHQGLSSPVTKSFNRGEC
modifications: MMAE linker-drug (pyridine-caproic-ValCit-PABc-MMAE, compound 8) grafted on interchain cysteines; mean DAR 3.89
IC50, XTT cytotoxicity test, H69 small cell lung carcinoma line (CD56 [1]): 1 to 2 nM

B2: MIO-003 (antibody, human IgG1, kappa, N297A)
heavy: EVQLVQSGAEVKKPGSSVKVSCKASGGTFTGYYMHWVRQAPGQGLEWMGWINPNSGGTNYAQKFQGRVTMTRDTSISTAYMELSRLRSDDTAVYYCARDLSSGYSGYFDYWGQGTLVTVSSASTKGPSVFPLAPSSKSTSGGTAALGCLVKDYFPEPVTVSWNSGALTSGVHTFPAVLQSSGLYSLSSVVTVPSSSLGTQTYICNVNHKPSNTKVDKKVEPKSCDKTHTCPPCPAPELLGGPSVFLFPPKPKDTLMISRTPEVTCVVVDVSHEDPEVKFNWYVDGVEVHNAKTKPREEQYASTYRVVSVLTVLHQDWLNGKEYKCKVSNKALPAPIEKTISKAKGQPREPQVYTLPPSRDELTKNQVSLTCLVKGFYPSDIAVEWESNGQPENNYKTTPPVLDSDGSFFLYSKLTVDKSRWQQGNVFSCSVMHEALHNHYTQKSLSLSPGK
light: DVVMTQSPLSLPVTPGEPASISCRSSQSLLHSNGYNFLDWYLQKPGQSPQLLIYLGSNRASGVPDRFSGSGSGTDFTLKISRVEADDVGVYYCMQSLQTPWTFGHGTKVEIKRTVAAPSVFIFPPSDEQLKSGTASVVCLLNNFYPREAKVQWKVDNALQSGNSQESVTEQDSKDSTYSLSSTLTLSKADYEKHKVYACEVTHQGLSSPVTKSFNRGEC
modifications: MMAE linker-drug (pyridine-caproic-ValCit-PABc-MMAE) as in MIO-001; attachment residues not itemised
IC50 (pM), XTT assay, H69 n = 3 (CD56 [2]): 1950 pM | IC50 (pM), XTT assay, H209 n = 3 (CD56 [2]): 22100 pM | IC50 (pM), XTT assay, PeTa n = 3 (CD56 [3]): 14900 pM | IC50 (pM), XTT assay, WaGa n = 3 (CD56 [3]): 10300 pM

B3: m906 (antibody, human IgG1, kappa)
heavy: not shown
light: DVVMTQSPLSLPVTPGEPASISCRSSQSLLHSNGYNFLDWYLQKPGQSPQLLIYLGSNRASGVPDRFSGSGSGTDFTLKISRVEADDVGVYYCMQSLQTPWTFGHGTKVEIKRTVAAPSVFIFPPSDEQLKSGTASVVCLLNNFYPREAKVQWKVDNALQSGNSQESVTEQDSKDSTYSLSSTLTLSKADYEKHKVYACEVTHQGLSSPVTKSFNRGEC
notes: also called mAb-001; anti-CD56 antibody m906
binding result (HER2): no binding (tested: 650 ng/mL)
